From patent US7910550B2, “Human kunitz-type inhibitor with enhanced antifibrinolytic activity” (STC.UNM, priority 2004, dated 2011)

Key:
[1] = tested on: VEGF-induced angiogenesis; test: VEGF-induced chorioallantoic membrane assay; type: in vivo; details: preliminary studies
[2] = tested on: HT-1080 cells; test: Apoptosis detection by AO/EB staining; type: cell-based, human; details: 1 μM, 48 h; approximately 5% in vehicle-treated cells
Experimental: (§1) All cell lines were maintained in Dulbecco's minimal essential medium (DMEM), supplemented with heat-inactivated 10% fetal bovine serum and penicillin-streptomycin. The cells were cultured either in 6- or 12-well plates at 37° C. in a humidified atmosphere containing 6% CO2. At confluence, the cells were treated with fresh medium containing either wild-type TFPI-2, R24K KD1, or R24Q KD1. Cells were treated in duplicate with purified proteins at concentrations ranging from 0.5 μM to 10 μM for different time intervals. One set were also treated with PBS to serve as a control. The Limulus Amebocyte Lysate (LAL) assay was performed on each protein preparation to determine the presence of any endotoxin/LPS, and only trace amounts of endotoxin (<0.5 ng/L) were detected in each protein preparation.
Cells were grown to confluence in two-chamber culture slides containing 2 ml medium. For AO/EB staining, the cultures were treated with recombinant proteins as described above. […] Cells were viewed within 30 minutes of staining and counted using a Zeiss axiocam epifluorescence microscope (Carl Zeiss, Inc., Thornwood, N.Y.) equipped with a triple cube filter [DAPI/FITC/RITC]. […] Experiments were performed in triplicate, and a minimum of 100 total live and apoptotic cells were counted in each treatment.

[3] = tested on: HT-1080 cells; test: FACS analysis of apoptosis with annexin V/propidium iodide; type: cell-based, human; details: 1 μM, 48 hours; for cells in a late apoptotic stage (annexin V and PI positive): vehicle 4%; for early apoptotic cells (annexin V-FITC positive): vehicle 16%
Experimental: as §1
To assess the degree of apoptosis between the various treatments, cells were grown to confluence in 6 well plates and treated with either proteins or vehicle as described earlier. For annexin V staining, approximately 1.2×10^6 cells were harvested with PBS containing 1 mM EDTA and washed twice gently with cold PBS. The cells were suspended in 100 μl of cold binding buffer (10 mM Hepes (pH 7.4), 140 mM NaCl, 2.5 mM CaCl2), and subsequently incubated at room temperature in the dark for 25 minutes with 5 μl of FITC-conjugated annexin V and 10 μl of propidium iodide (50 μg/ml stock). The cells were then washed in 500 μl of binding buffer to remove unbound reagents, centrifuged at 900×g for 5 minutes, and resuspended in 1 ml of cold binding buffer. The labeled cells were then analyzed using a FACSCALIBUR flow cytometer (Becton Dickinson, San Jose, Calif.) and the data analyzed using […] software.

[4] = tested on: HT-1080 cells; test: Western blot of cell extracts (Bax, Bcl-2, cleaved caspase-9, cleaved caspase-3); type: cell-based, human; details: 1 μM, 48 hours; for activated caspase 9 and activated caspase 3 (immunoblot): vs vehicle-treated cells
Experimental: Cell extracts were analyzed for the pro-apoptotic Bax, the anti-apoptotic Bcl-2, cleaved caspase-9 and cleaved caspase-3 by immunoblotting techniques. Approximately, 1×10^6 HT-1080 cells were grown to confluence in 6-well plates and treated with recombinant proteins and vehicle as described above. Both floating and adherent cells were harvested and washed twice with cold PBS. The cells were lysed by sonication in 500 μl of lysis buffer containing of 125 mM Tris-HCl (pH 6.8), 2% SDS, 10% glycerol, 50 mM sodium phosphate, 1 mM PMSF and protease inhibitor cocktail. The lysate was kept on ice for about 10 minutes, centrifuged for 15 minutes at 10,000×g at 4° C., and the supernatant recovered. The supernatants were boiled for 3 min and 50 μg of lysate protein subjected to SDS-PAGE in 4-20% polyacrylamide gradient gels. […] The nitrocellulose membranes were then probed with specific antibodies dissolved in fresh blocking buffer, and immunoreactive proteins were identified using HRP-conjugated secondary antibodies and a chemiluminescent reagent system essentially as described in Kempiah et al., Mol. Cancer, 6:20, 2007. Separate blots were treated with mouse monoclonal anti-α-tubulin antibody in order to verify equal loading of lysate proteins onto the gel.

[5] = tested on: HT-1080 cells; test: DNA fragmentation analysis by agarose gel electrophoresis; type: cell-based, human; details: 48 hours
Experimental: Cells were grown to confluence in 6-well plates and treated with either wild-type TFPI-2 or R24K KD1 at the same concentrations described above. After incubation for either 24 or 48 hours at 37° C., the cells were harvested and washed twice with PBS. The DNA was then extracted using the DNEASY tissue kit (Qiagen, Valencia, Calif.) accordingly to the manufacturer's instructions. DNA extracts were electrophoresed in 1.8% agarose gels at 100 V for 45 minutes and visualized with ethidium bromide staining under UV illumination.

[6] = molecular target: factor VIIa-tissue factor complex (Homo sapiens, UniProt P08709); test: Inhibition assay for factor VIIa-tissue factor amidolytic activity (S-2288); type: biochemical; set-up: purchased Novo Nordisk (Copenhagen, Denmark) for factor VIIa (provided as a gift); soluble tissue factor prepared in house by a published method (Petersen et al., 1996); details: relative to wild-type KD1
Sequence of factor VIIa-tissue factor complex (P08709 213-466 limits assumed): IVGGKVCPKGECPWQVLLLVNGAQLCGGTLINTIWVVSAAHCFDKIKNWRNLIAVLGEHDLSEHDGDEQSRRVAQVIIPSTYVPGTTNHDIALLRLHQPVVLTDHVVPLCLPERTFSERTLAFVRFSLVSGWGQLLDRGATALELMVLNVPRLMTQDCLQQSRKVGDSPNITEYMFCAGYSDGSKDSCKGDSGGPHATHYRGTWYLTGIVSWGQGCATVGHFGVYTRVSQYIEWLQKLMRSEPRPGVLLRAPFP
Sequence of factor VIIa-tissue factor complex (P08709 61-212 partner limits assumed): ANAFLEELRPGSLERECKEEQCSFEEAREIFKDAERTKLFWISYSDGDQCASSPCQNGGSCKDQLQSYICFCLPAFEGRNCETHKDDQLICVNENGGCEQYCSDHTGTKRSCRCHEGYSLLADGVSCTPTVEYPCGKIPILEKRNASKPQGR
Sequence of factor VIIa-tissue factor complex (P13726 33-251 partner limits assumed): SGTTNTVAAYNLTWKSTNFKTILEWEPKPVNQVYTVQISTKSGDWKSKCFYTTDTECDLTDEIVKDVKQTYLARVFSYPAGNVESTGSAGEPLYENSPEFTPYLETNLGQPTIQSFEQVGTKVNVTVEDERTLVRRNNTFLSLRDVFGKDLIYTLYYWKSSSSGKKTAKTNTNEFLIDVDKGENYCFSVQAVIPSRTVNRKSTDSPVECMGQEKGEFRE
Experimental: Recombinant soluble human tissue factor (100 nM) and factor VIIa (50 nM) were incubated in a TBS-BSA buffer/5 mM CaCl2 for 15 minutes at 37° C. Following this incubation, aliquots (100 μl) were dispensed into a 96-well microtitration plate and treated with serial dilutions of inhibitors dissolved in TBS buffer. After 15 minutes of incubation, 30 μl of S-2288 (final concentration, 1 mM) was added to each well and the absorbance at 405 nm was determined as described earlier.
The apparent inhibition constant, Ki′ was determined using the non-linear regression data analysis program Ultrafitfv3.0 (Biosoft). Trypsin and plasmin inhibitory data were analyzed according to the following equation for a tight-binding inhibitor: vi=v0[√(Ki′+[I]0+[E]0)^2−4[I]0[E]0−(Ki′+[I]0−[E]0)]/2[E]0 where vi and v0 are the inhibited and uninhibited rates, respectively, and [I]0 and [E]0 are the total concentrations of inhibitor and enzyme, respectively. Factor VIIa-tissue factor inhibition data, where Ki>>[E]0, were analyzed according to the following equation: vi=v0/(1+[I]0/Ki′) Ki values were obtained by correcting for the effect of substrate according to Bieth et al. (Biochem. Med., 32:387-397, 1984), where Ki=Ki′/(1+[S]/Km) Results Molecular Modeling and Selection of Mutations

| Molecule | anti-angiogenic effect [1] | apoptotic cells (AO/EB staining) [2] [%] | cells in a late apoptotic stage (annexin V and PI positive) [3] [%] | early apoptotic cells (annexin V-FITC positive) [3] [%] | Bax and Bcl-2 protein expression (immunoblot) [4] | activated caspase 9 and activated caspase 3 (immunoblot) [4] | DNA fragmentation [5] | reduction in inhibitory activity towards factor VIIa / VIIa-TF [6] |
| --- | --- | --- | --- | --- | --- | --- | --- | --- |
| TFPI-2: Human tissue factor pathway inhibitor-2, 213 amino acid polypeptide with three tandem Kunitz-type domains (SEQ ID NO:1) (protein, listed as Homo sapiens) DAAQEPTGNNAEICLLPLDYGPCRALLLRYYYDRYTQSCRQFLYGGCEGNANNFYTWEACDDACWRIEKVPKVCRLQVSVDDQCEGSTEKYFFNLSSMTCEKFFSGGCHRNRIENRFPDEATCMGFCAPKKIPSFCYSPKDEGLCSANVTRYYFNPRYRTCDAFTYTGCGGNDNNFVSREDCKRACAKALKKKKKMPKLRFASRIRKIRKKQF | potent and dose-dependent anti-angiogenic effect | 39 | ~43 | 55 | increased expression of the pro-apoptotic protein, Bax, and decreased expression of the anti-apoptotic protein, Bcl-2 | activation of caspase-9 and caspase-3 | ladder pattern typically associated with DNA fragmentation and apoptosis | – |
| R24K KD1: KD1 with lysine in place of arginine at position 24 (SEQ ID NO:3) (protein, mutated active domain) DAAQEPTGNNAEICLLPLDYGPCKALLLRYYYDRYTQSCRQFLYGGCEGNANNFYTWEACDDACWRIEKVPKV | – | – | ~58 | 41 | increased expression of the pro-apoptotic protein, Bax, and decreased expression of the anti-apoptotic protein, Bcl-2 | activation of caspase-9 and caspase-3 | ladder pattern typically associated with DNA fragmentation and apoptosis | approximately five-fold |
